From patent publication US20100203046A1 (Biogen, published 2010)

Assays:
human C1q (Sigma C0660) [1] = molecular target: T1, human C1q (Sigma C0660) (human, UniProt P02745 23-245; P02746 28-253; P02747 29-245); experiment: C1q ELISA on CD2, purified
T1 construct: Bought protein; also called complement protein C1q

[2] = molecular target: T2, human FcγRIII (CD16), CD16a (F158), on CD16-transfected Jurkat cells (human, UniProt P08637 17-254); experiment: CD16 bridging assay, purified
T2 construct: whole, on cells
T2 sequence (P08637 17-254): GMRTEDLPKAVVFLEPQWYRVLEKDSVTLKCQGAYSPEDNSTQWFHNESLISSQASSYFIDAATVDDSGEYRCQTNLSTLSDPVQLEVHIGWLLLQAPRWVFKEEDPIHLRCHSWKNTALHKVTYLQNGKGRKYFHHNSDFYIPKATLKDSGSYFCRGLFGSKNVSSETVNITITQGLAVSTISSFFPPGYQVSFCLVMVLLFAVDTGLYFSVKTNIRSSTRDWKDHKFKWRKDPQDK

[3] = molecular target: T2, human FcγRIII (CD16), CD16a (F158), on …; experiment: CD16 bridging assay, transient
[4] = molecular target: T3, human FcγRIIb (CD32b) on CHO-FcγRII cells (human, UniProt P31994 43-310); experiment: CD32b bridging assay, purified
T3 construct: whole, on cells
T3 sequence (looked up): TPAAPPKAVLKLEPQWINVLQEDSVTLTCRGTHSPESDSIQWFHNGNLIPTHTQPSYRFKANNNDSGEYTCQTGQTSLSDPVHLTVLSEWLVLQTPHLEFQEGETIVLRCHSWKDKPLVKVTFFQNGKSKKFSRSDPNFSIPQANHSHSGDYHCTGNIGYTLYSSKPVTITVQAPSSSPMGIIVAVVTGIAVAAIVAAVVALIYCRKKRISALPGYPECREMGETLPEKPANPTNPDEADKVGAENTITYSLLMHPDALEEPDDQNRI

[5] = molecular target: T4, human FcγRI (CD64) on IFNγ-activated U937 cells (human, UniProt P12314 16-374); experiment: CD64 bridging assay, purified
T4 construct: whole, on cells; also called FcγR1
T4 sequence (P12314 16-374): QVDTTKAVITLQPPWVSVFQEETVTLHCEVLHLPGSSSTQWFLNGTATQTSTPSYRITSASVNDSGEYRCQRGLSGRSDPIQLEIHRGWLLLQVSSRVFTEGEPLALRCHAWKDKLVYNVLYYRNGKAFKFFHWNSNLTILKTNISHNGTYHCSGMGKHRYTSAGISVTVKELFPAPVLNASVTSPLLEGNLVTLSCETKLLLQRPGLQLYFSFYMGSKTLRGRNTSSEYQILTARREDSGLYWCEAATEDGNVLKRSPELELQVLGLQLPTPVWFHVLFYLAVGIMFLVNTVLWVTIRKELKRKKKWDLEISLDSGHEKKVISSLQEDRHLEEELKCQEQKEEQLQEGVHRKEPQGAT

[6] = molecular target: T2, human FcγRIII (CD16), CD16a (F158), on …; experiment: CD16 bridging assay, purified; remark: listed apart in the source
[7] = molecular target: T2, human FcγRIII (CD16), CD16a (F158), on …; experiment: CD16 bridging assay, transient; remark: listed apart in the source
[8] = molecular target: T5, GST-tagged FcγRIII, CD16a (V158) (UniProt P08637 17-208, limits assumed); experiment: AlphaScreen competition vs huIgG1 beads, purified
T5 construct: the canonical entry carries F there; Captured by biotinylated anti-GST mAb on streptavidin donor beads; also called GST-FcγRIII; not shown: GST tag
T5 sequence (P08637 17-208 F176V limits assumed): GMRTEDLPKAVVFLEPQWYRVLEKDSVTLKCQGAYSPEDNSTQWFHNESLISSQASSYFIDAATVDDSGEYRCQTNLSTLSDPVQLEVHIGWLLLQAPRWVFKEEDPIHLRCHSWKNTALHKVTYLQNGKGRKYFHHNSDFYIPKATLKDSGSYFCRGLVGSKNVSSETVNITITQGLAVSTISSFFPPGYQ
Method: The relative binding affinities to FcγRIII (CD16), of the variant antibodies, was determined using an AlphaScreen assay (Amplified Luminescent Proximity Homogeneous Assay, PerkinElmer, MA, USA). Laser excitation of a donor bead excites oxygen, which if in close proximity to an acceptor bead generates a cascade of chemiluminescent events, ultimately leading to fluorescence emission at 520-620 nm. […] The reaction was carried out for one hour in a 25 μl volume and plates were read in the Fusion Alpha reader (PerkinElmer).

[9] = molecular target: T5, GST-tagged FcγRIII, CD16a (V158); experiment: summary of Table 4 assays (CD16a)
[10] = molecular target: Human FcγRIIIa on natural killer (NK) cells of a donor (human, UniProt P08637 17-254); experiment: cell-based or functional assay
Sequence of Human FcγRIIIa on natural killer (NK) cells of a donor (P08637 17-254): as the sequence (P08637 17-254) above

[11] = molecular target: T2, human FcγRIII (CD16), CD16a (F158), on …; experiment: CD16 bridging assay, purified; remark: listed apart in the source
[12] = molecular target: T2, human FcγRIII (CD16), CD16a (F158), on …; experiment: CD16 bridging assay, transient; remark: listed apart in the source
[13] = molecular target: T2, human FcγRIII (CD16), CD16a (F158), on …; experiment: summary of Table 6 assays
human C1q (Sigma C0660) [14] = molecular target: T1, human C1q (Sigma C0660); experiment: C1q ELISA on CD2, transient
[15] = molecular target: T2, human FcγRIII (CD16), CD16a (F158), on …; experiment: CD16 bridging assay, purified; remark: listed apart in the source
[16] = molecular target: T2, human FcγRIII (CD16), CD16a (F158), on …; experiment: summary of Table 5 assays
[17] = molecular target: T2, human FcγRIII (CD16), CD16a (F158), on …; experiment: CD16 bridging assay, transient; remark: listed apart in the source

T1 sequence (P02745 23-245 limits assumed, chain 1 of 3): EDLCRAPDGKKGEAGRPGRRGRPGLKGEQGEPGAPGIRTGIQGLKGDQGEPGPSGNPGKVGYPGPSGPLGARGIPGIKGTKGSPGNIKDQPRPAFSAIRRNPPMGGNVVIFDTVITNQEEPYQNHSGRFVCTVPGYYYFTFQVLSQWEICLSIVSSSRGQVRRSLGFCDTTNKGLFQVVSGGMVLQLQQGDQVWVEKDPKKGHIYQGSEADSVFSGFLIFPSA
T1 sequence (P02746 28-253 limits assumed, chain 2 of 3): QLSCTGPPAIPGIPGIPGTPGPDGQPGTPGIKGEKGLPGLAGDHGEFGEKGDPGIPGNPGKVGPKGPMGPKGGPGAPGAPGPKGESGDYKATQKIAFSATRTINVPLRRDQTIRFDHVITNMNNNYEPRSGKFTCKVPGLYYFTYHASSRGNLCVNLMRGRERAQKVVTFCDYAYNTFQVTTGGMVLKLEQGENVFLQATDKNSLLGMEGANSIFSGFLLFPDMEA
T1 sequence (P02747 29-245 limits assumed, chain 3 of 3): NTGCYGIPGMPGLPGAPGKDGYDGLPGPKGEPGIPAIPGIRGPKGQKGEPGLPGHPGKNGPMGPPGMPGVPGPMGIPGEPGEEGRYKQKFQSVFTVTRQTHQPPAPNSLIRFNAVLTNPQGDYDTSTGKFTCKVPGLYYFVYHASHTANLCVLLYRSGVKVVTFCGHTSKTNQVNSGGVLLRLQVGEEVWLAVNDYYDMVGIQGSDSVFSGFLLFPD

B1: chCB6-huIgG1 L328N (antibody, name in EU numbering)
heavy: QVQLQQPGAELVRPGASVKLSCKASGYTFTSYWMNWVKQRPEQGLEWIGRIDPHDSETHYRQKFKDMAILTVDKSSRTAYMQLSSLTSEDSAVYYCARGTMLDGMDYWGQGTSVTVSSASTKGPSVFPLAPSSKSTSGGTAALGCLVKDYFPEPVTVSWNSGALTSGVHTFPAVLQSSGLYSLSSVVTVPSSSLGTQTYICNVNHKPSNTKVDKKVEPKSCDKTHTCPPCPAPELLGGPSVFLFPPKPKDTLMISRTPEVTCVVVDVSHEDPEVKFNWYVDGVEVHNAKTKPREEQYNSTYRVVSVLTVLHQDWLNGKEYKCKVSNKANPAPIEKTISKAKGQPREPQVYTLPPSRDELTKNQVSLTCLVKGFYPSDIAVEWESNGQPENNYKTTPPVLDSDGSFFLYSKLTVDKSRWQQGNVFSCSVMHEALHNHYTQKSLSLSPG
light: QIVLTQSPAIMSASPGEKVTMTCRASSSVSHMHWYQQKSGTSPKRWIYDTSKLASGVPARFSGSGSGTSYSLTISSVEAEDAATYYCQQWSSNPLTFGAGTKLELKRTVAAPSVFIFPPSDEQLKSGTASVVCLLNNFYPREAKVQWKVDNALQSGNSQESVTEQDSKDSTYSLSSTLTLSKADYEKHKVYACEVTHQGLSSPVTKSFNRGEC
notes: copies: 2 + 2
- binding result (human C1q (Sigma C0660) [1]): no binding
- fold decrease in binding vs WT [2]: 10 fold
- fold decrease in binding vs WT [3]: 2 fold
- fold decrease in binding vs WT [4]: 3 fold
- binding result [5]: binds

B2: chCB6-huIgG1 S239D/I332D (antibody, name in EU numbering)
heavy: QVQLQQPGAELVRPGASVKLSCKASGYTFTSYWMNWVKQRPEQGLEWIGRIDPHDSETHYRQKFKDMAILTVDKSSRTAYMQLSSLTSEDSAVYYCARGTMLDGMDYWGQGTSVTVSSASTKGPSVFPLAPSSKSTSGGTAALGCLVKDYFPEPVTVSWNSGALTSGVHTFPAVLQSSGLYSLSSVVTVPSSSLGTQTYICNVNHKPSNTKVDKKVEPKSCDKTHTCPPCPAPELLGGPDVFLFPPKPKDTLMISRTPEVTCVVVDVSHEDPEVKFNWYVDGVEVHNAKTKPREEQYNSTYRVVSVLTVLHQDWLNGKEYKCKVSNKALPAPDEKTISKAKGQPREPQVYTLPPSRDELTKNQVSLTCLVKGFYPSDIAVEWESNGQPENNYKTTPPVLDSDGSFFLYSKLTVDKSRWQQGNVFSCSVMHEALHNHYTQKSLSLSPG
light: B1 light
notes: copies: 2 + 2
- binding result (human C1q (Sigma C0660) [1]): binds
- fold increase in binding vs WT [6]: 6 fold
- fold increase in binding vs WT [7]: 4 fold
- fold increase in binding vs WT [8]: 15 fold
- fold increase in binding vs WT [9]: > 10 fold

B3: chCB6-huIgG1 T299C (antibody, name in EU numbering)
heavy: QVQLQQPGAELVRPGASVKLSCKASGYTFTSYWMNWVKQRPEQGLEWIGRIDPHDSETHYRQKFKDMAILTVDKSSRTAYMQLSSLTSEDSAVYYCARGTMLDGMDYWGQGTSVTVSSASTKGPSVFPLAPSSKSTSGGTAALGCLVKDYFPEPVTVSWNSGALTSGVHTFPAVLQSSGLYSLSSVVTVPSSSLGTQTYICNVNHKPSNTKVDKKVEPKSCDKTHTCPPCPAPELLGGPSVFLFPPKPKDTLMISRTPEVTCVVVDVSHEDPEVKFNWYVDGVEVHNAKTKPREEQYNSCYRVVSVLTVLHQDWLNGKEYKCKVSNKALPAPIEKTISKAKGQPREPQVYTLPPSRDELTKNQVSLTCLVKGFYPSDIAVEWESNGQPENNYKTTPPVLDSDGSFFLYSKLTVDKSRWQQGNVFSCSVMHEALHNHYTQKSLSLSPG
light: B1 light
notes: Assay control; copies: 2 + 2
- binding result (human C1q (Sigma C0660) [1]): no binding
- binding result [3]: no binding
- binding result [4]: no binding
- binding result [5]: no binding
- binding result [8]: no binding

B4: chCB6-huIgG1 triple mutant S298A/E333A/K334A (antibody, name in EU numbering)
heavy: QVQLQQPGAELVRPGASVKLSCKASGYTFTSYWMNWVKQRPEQGLEWIGRIDPHDSETHYRQKFKDMAILTVDKSSRTAYMQLSSLTSEDSAVYYCARGTMLDGMDYWGQGTSVTVSSASTKGPSVFPLAPSSKSTSGGTAALGCLVKDYFPEPVTVSWNSGALTSGVHTFPAVLQSSGLYSLSSVVTVPSSSLGTQTYICNVNHKPSNTKVDKKVEPKSCDKTHTCPPCPAPELLGGPSVFLFPPKPKDTLMISRTPEVTCVVVDVSHEDPEVKFNWYVDGVEVHNAKTKPREEQYNATYRVVSVLTVLHQDWLNGKEYKCKVSNKALPAPIAATISKAKGQPREPQVYTLPPSRDELTKNQVSLTCLVKGFYPSDIAVEWESNGQPENNYKTTPPVLDSDGSFFLYSKLTVDKSRWQQGNVFSCSVMHEALHNHYTQKSLSLSPG
light: B1 light
notes: Assay control; triple mutant as described by Shields et al; also called Triple Mutation S298A, E333A, K334A; copies: 2 + 2
- ADCC NK cell, purified (fold increase vs WT) [10]: 21 fold
- fold decrease in binding vs WT (human C1q (Sigma C0660) [1]): 2 fold
- fold increase in binding vs WT [2]: 5 fold
- fold increase in binding vs WT [3]: 10 fold
- fold decrease in binding vs WT [5]: 4 fold
- fold increase in binding vs WT [8]: 4 fold

B5: chCB6-huIgG1 D376Y (antibody, name in EU numbering)
heavy: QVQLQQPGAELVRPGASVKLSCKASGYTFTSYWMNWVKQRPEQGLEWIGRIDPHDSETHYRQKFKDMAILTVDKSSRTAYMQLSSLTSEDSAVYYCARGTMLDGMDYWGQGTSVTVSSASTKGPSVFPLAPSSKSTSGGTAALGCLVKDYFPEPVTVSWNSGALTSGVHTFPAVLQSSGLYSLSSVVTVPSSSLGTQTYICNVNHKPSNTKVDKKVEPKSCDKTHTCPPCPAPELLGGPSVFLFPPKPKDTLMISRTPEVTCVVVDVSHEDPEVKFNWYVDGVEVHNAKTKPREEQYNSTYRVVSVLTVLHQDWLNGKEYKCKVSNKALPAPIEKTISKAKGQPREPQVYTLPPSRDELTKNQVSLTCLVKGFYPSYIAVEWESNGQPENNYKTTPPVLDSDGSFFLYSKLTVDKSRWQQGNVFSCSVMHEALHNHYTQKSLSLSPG
light: B1 light
notes: copies: 2 + 2
- fold decrease in binding vs WT [11]: 3 fold
- fold decrease in binding vs WT (human C1q (Sigma C0660) [1]): 3 fold

B6: chCB6-huIgG1 D376K (antibody, name in EU numbering)
heavy: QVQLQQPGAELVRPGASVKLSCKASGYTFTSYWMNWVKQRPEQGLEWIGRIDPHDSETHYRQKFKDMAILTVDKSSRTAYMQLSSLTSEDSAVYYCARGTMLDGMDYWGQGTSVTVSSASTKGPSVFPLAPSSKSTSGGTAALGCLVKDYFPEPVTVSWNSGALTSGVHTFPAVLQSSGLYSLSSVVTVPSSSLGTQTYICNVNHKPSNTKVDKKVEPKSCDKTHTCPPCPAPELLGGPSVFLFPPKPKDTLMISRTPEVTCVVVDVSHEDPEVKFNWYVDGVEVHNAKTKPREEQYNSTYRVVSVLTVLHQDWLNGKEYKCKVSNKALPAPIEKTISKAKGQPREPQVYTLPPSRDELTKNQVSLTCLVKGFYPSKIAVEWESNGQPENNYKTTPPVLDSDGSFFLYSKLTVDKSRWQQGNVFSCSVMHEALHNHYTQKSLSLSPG
light: B1 light
notes: copies: 2 + 2
- fold decrease in binding vs WT [12]: 15 fold
- fold decrease in binding vs WT [13]: > 10 fold
- binding result (human C1q (Sigma C0660) [14]): binds

B7: chCB6-huIgG1 D376W (antibody, name in EU numbering)
heavy: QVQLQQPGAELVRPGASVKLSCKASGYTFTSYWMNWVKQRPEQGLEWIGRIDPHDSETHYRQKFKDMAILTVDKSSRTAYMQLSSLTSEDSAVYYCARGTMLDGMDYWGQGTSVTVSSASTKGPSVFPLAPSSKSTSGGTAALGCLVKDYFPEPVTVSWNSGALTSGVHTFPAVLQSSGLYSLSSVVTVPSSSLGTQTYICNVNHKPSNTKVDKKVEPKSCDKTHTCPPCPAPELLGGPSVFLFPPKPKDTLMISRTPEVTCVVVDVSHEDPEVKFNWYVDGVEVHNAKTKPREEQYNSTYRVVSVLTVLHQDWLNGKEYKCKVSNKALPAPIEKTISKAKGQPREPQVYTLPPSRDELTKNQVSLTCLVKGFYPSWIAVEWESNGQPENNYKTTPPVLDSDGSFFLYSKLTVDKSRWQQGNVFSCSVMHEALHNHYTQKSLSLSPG
light: B1 light
notes: copies: 2 + 2
- fold decrease in binding vs WT [11]: 3 fold
- fold decrease in binding vs WT [12]: 15 fold
- fold decrease in binding vs WT [13]: > 10 fold
- binding result (human C1q (Sigma C0660) [14]): no binding

B8: chCB6-huIgG1 S239D/I332E (antibody, name in EU numbering)
heavy: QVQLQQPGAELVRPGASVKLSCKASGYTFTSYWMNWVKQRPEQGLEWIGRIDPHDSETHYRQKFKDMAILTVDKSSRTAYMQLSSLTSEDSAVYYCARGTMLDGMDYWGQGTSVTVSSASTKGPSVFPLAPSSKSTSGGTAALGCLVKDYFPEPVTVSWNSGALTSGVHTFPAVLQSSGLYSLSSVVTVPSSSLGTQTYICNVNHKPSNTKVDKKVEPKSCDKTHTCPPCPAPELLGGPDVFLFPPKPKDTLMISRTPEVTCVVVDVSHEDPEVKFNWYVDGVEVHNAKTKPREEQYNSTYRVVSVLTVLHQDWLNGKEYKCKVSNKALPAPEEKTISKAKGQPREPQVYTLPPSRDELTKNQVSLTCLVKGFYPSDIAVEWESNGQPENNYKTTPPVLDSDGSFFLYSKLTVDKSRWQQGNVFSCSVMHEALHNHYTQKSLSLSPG
light: B1 light
notes: copies: 2 + 2
- binding result (human C1q (Sigma C0660) [1]): binds
- fold increase in binding vs WT [6]: 8 fold
- fold increase in binding vs WT [7]: 12 fold
- fold increase in binding vs WT [8]: 26 fold
- fold increase in binding vs WT [9]: > 10 fold

B9: chCB6-huIgG1 Y296A (antibody, name in EU numbering)
heavy: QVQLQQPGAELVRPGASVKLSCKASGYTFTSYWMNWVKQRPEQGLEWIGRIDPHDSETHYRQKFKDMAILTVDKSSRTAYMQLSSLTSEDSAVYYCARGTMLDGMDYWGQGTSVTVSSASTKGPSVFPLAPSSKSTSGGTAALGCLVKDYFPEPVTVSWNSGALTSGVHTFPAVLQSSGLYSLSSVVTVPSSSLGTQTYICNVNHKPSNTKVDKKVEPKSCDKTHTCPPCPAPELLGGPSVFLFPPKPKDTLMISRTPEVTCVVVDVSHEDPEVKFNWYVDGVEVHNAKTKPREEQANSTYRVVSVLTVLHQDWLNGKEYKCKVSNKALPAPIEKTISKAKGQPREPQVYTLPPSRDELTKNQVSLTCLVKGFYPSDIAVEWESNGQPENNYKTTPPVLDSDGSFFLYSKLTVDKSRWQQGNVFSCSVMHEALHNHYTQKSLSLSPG
light: B1 light
notes: copies: 2 + 2
- fold decrease in binding vs WT [15]: 5 fold
- fold decrease in binding vs WT (human C1q (Sigma C0660) [1]): 3 fold
- fold decrease in binding vs WT [16]: > 10 fold
- fold decrease in binding vs WT (human C1q (Sigma C0660) [14]): 5 fold
- fold decrease in binding vs WT [17]: 13 fold
